Data: US11667697

What was measured:
[1] = biological target: MPXV ortholog of the A27 VACV protein (monkeypox virus); assay: lysate ELISA
[2] = biological target: CPXV ortholog of A27 (cowpox virus); assay: lysate ELISA
[3] = biological target: MPXV ortholog of the A27 VACV protein (monkeypox virus); assay: cell-based or functional assay
[4] = biological target: CPXV ortholog of A27 (cowpox virus); assay: cell-based or functional assay
[5] = biological target: MPXV ortholog of the A27 VACV protein (monkeypox virus); assay: purified antigen ELISA
[6] = biological target: VARV ortholog of A27 (variola virus); assay: purified antigen ELISA
[7] = biological target: MPXV ortholog of H3 (monkeypox virus); assay: lysate ELISA
[8] = biological target: CPXV ortholog of H3 (cowpox virus); assay: lysate ELISA
[9] = biological target: MPXV ortholog of H3 (monkeypox virus); assay: cell-based or functional assay
[10] = biological target: CPXV ortholog of H3 (cowpox virus); assay: cell-based or functional assay
[11] = biological target: VACV I1 protein (vaccinia virus); assay: lysate ELISA
[12] = biological target: MPXV ortholog of I1 (monkeypox virus); assay: lysate ELISA
[13] = biological target: CPXV ortholog of I1 (cowpox virus); assay: lysate ELISA
[14] = biological target: MPXV ortholog of A33 (monkeypox virus); assay: lysate ELISA
[15] = biological target: MPXV ortholog of A33 (monkeypox virus); assay: cell-based or functional assay
[16] = biological target: CPXV ortholog of A25 (cowpox virus); assay: lysate ELISA
[17] = biological target: VACV A25 protein (vaccinia virus); assay: lysate ELISA
[18] = biological target: MPXV ortholog of A25 (monkeypox virus); assay: lysate ELISA
[19] = biological target: CPXV ortholog of B5 (cowpox virus); assay: lysate ELISA
[20] = biological target: MPXV ortholog of B5 (monkeypox virus); assay: lysate ELISA
[21] = biological target: CPXV ortholog of B5 (cowpox virus); assay: cell-based or functional assay
[22] = biological target: VARV ortholog of B5 (variola virus); assay: purified antigen ELISA
[23] = biological target: MPXV ortholog of I1 (monkeypox virus); assay: cell-based or functional assay
[24] = biological target: CPXV ortholog of A33 (cowpox virus); assay: lysate ELISA
[25] = biological target: VARV ortholog of A33 (variola virus); assay: purified antigen ELISA

B1: VACV-301 (antibody, V domains shown)
VH: EVQLLESGGGLVQPGGSLRLSCAASGFSFSSYAMSWVRQAPGKGLEWVSGIGNSGDRTFYADSAKGRFTIFRDNSNNRLYLQMNSLRAADTAVYYCAKWGRFESGAFWGQGVLVTVSS
VL: SYELTQSPSVSVSPGQTARITCSGDALPEQYAYWYQQKPGQAPVLVIYKDSERPSGIPERFSGSGSGTTVTLTITGVQAEDEADYYCQSADNSGTYEVFGTGTKVTVL
EC50 [1]: > 5.6 µg/mL | EC50 [2]: > 1.4 µg/mL | PRNT Emax, MPXV MV [3]: 84% | PRNT Emax, MPXV MV+C' [3]: 92% | PRNT IC50, MPXV MV [3]: 1.6 µg/mL | PRNT IC50, MPXV MV+C' [3]: 0.8 µg/mL | PRNT Emax, CPXV MV+C' [4]: 86% | PRNT IC50, CPXV MV+C' [4]: 4 µg/mL | EC50 [5]: 0.04 µg/mL | EC50 [6]: 0.11 µg/mL

B2: VACV-314 (antibody, V domains shown)
VH: QVQLVQSGPGLVKPSETLSLTCTVSGGSISSYYWSWIRQPPGKGLEYIGHIYYSGGTKYNPSLRSRVTISVDTSKNQFSLKLTSVTAADTAVYYCARLAGRKPDADSWGQGTLVTVSS
VL: QPVLTQEPSLTVSPGGTVTLTCASSTGAVTSGFFPNWLQQKPGQAPRALIYSTNNKHSWTPARFSGSLLGGKAALTLSGVQPEDEAEYYCLLYYGGVVVFGGGTKLTVL
EC50 [7]: 0.003 µg/mL | EC50 [8]: 0.004 µg/mL | PRNT Emax, MPXV MV+C' [9]: 84% | PRNT IC50, MPXV MV+C' [9]: 0.8 µg/mL | PRNT Emax, CPXV MV+C' [10]: 85% | PRNT IC50, CPXV MV+C' [10]: 0.7 µg/mL

B3: MPXV-31 (antibody, V domains shown)
VH: QLQLQESGPGLVKPSETLSLTCTVSGGSISSRNFFWAWIRQPPGKGLEFIGSIFYSGGTYYNPSLKSRLSISVDTSRNQFSLRLSSVTAADTAVYYCARHMIVVLPGVPISTSFDPWGQGTL
VL: DIVMTQSPDSLAVSLGERATINCKSSQSVLSNSNNKNYLAWYQQKPGQPPRLLIYWASARESGVPDRFSGSGSGTDFTLTIISLQPEDVAVYYCQQYYSPPAELSFGGGTKVDIK
EC50 [11]: 0.01 µg/mL | EC50 [12]: 0.04 µg/mL | EC50 [13]: 0.01 µg/mL

B4: MPXV-39 (antibody, V domains shown)
VH: QVQLQQWGAGLLKPSETLSLTCAIYGGSLSGQYWSWIRQPPGRGLEWIGEIHHKGRTNYNPSLKSRVTISIDTSQRQFSLRLTSVSAADTAVYYCASGNYRLGQGTLVTF
VL: DVVLTQSPLTLPVTLGQPASISCRSSQSLVYSDGDTYLNWFQQRPGQAPRRLIYKVSKRDFGVPDRFSGSGSGTDFTLRISRVEAEDVGVYYCMQGTHWPRTFGQGTQVDIK
EC50 [14]: > 47 µg/mL | PRNT Emax, MPXV EV+C' [15]: 56% | PRNT IC50, MPXV EV+C' [15]: 100 µg/mL

B5: VACV-309 (antibody, V domains shown)
VH: EVQLLESGGGLVQPGESLKLSCAASGFTFSSYAMNWVRQAPGKGLEWVSGISGSGGSTYYADSVKGRFTVSRDNSKNTLYLQMNSLRAEDTAVYYCAKDNNYYYYGMDVWGQGTTVTVSS
VL: AIQMTQSPSSLSASVGDRVTITCRASQGIRNDLGWYQQKPGKAPKLLIYAASSLQSGVPSRFSGSGSGTDFTLTISSLQPEDFATYYCLQDYNYPRMFGQGTKVDIK
EC50 [16]: 0.005 µg/mL | EC50 [17]: 0.005 µg/mL | EC50 [18]: 0.001 µg/mL

B6: VACV-303 (antibody, V domains shown)
VH: EVQLLESGGGLVQPGGSLRLSCAASGFTFSSYAMSWVRQAPGKGLEWVSAISGTGGNTYYADSVKGRFTISRDKSKNTLYLQMHSLRAEDTAVYYCATSLIWWLQSDYWGQGTLVTVSS
VL: DIQMTQSPSSLSASVGDRVTITCRASQSIASYLIWYQQKPGNAPKLLIYAASSLQSGVPSRFSGSGSGTDFTLTISSLQPEDFATYYCQQSYSTPQTFGQGTKVDIK
EC50 [1]: 0.004 µg/mL | EC50 [2]: 0.004 µg/mL | PRNT Emax, MPXV MV [3]: 51% | PRNT Emax, MPXV MV+C' [3]: 64% | PRNT IC50, MPXV MV [3]: 25 µg/mL | PRNT IC50, MPXV MV+C' [3]: 15 µg/mL | EC50 [5]: 0.02 µg/mL | EC50 [6]: 0.16 µg/mL

B7: VACV-315 (antibody, V domains shown)
VH: EVQLLESGGGLVQPGGSLKLSCAASGFIFSNYAMGWVRQAPGKGLEWVSALSASDGVTSYADSVKGRFTISRDNSKNTMYLQMNRLRTEDTAIYFCAKGRARVNNIYRYFDHWGQGTLVTVSS
VL: QSVLTQPASVSGSPGQSITISCTGTSSDVGAYTFVSWYQHHPGKAPKLIIYEVSNRPSGVSDRFSGSKSGNTASLTISGLQAEDEADYYCNSYTTTSPWVFGGGTQLTVL
EC50 [7]: 0.001 µg/mL | EC50 [8]: 0.002 µg/mL | PRNT Emax, CPXV MV+C' [10]: 70% | PRNT IC50, CPXV MV+C' [10]: 2.8 µg/mL

B8: MPXV-66 (antibody, V domains shown)
VH: QVQLQQWGAGLLKPSETLSLTCAVHGGSFSGYFWSWIRQPPGKGLEWIGEMNHSGSTNYNPSLKSRVTISVDTSKKQFSLKLNSVTAADTAVYYCARTARTVRYFENWGQGTLVTVSS
VL: DIVMTQSPDSLAVSLGERATINCKSSQTVLYNSNNYSYLTWYQQKPGQPPRVLIYWASTRESGVPDRFSGSGSGTDFTLTISSLQAENVALYYCQQYYSTPWTFGQGTKVDIK
EC50 [19]: > 29 µg/mL | EC50 [20]: > 16 µg/mL | PRNT Emax, CPXV EV+C' [21]: 86% | PRNT IC50, CPXV EV+C' [21]: 0.03 µg/mL | EC50 [22]: 0.16 µg/mL

B9: MPXV-79 (antibody, V domains shown)
VH: QVQLVQSGAEVKKPGASVKVSCKASGYSFRSNGISWVRQAPGQGFEWLGWIAAYNGDTKYVQKFQGRLTMTTDTSTDTAYMELWSLRSDDTAVYYCARDPKLGRKGSAFDIWGQGTLVIVSS
VL: EIVLTQSPATLSLSPGGRATLSCRASQSVGNYLTWYQQKPGQAPRLLIFDGSTRATGIPARFSGSGSGTDFTLTISSLEPEDFAVYYCLQRSDLYTFGQGTKVDIK
EC50 [7]: 0.003 µg/mL | EC50 [8]: 0.004 µg/mL | PRNT Emax, MPXV MV [9]: 67% | PRNT IC50, MPXV MV [9]: 12.5 µg/mL | PRNT Emax, CPXV MV+C' [10]: 81% | PRNT IC50, CPXV MV+C' [10]: 0.2 µg/mL

B10: MPXV-97 (antibody, V domains shown)
VH: QVQLVQSGGGVVQPGRSLTLSCSASGFIFTRYGLHWVRQAPGKGLEWVAVISSDGTNRHYADSVKGRFTVSRDNSKSTLYVQMNSLRNEDTAVYYCARLSLEAAWYFDLWGRGTLVTVSS
VL: QSVVTQPPSVSGAPGQRVTISCTGSSSNIGAGYDVHWYQHLPGTAPKVLIYGNTNRPSGVPDRFSGSKSGTSASLAITGLQAEDEADYYCQSYDNSLNGPWVFGTGTQ
EC50 [11]: 0.008 µg/mL | EC50 [12]: 0.001 µg/mL | EC50 [13]: > 50 µg/mL | PRNT Emax, MPXV MV [23]: 96% | PRNT Emax, MPXV MV+C' [23]: 76% | PRNT IC50, MPXV MV [23]: 0.02 µg/mL | PRNT IC50, MPXV MV+C' [23]: 0.02 µg/mL

B11: MPXV-51 (antibody, V domains shown)
VH: QLQLQESGPGLVKPSETLSLSCTVSGGSINSRTYYWGWIRQPPGKGPEWIGTVFHNVSTLYTSSLRSRVTISVDTSKNRFSLKLTSVTAADTAVYFCGRLTPRNLFRGTLVRWVDPWGQGILVTVSS
VL: EIVLAQSPGTLSLSPGERATLSCRASHNLNSNYLAWYQQKPGQAPRLLIYGASSRATGIPDRFTGSGSGTDFTLTISRLEPEDFAVYYCQQYAGSLTFGGGTKVDIK
EC50 [24]: 0.024 µg/mL | EC50 [14]: 0.025 µg/mL | PRNT Emax, MPXV EV+C' [15]: 77% | PRNT IC50, MPXV EV+C' [15]: 0.8 µg/mL | EC50 [25]: 0.04 µg/mL

B12: MPXV-71 (antibody, V domains shown)
V domain 1: EVQLVESGGGLVQPGESLKISCSASGFTFSDYAMHWVRQAPGQGLQYVSAISSNGHSTYYADSVKGRFTFSRDNSKNTLYLQMSSLRPEDTAVYYCVRCLLRGLISPFDYWGQGTLV
V domain 2: QSVLTQPPSVSEAPRQRVTISCSGSSSNIGNNAVNWYQQLPGKAPKLLIYYDDLLPSGVSDRFSGSKSGTTASLTISGPPEDEADFYCSTWDYSLSARVFGGGTQVTVL
EC50 [11]: 0.022 µg/mL | EC50 [12]: 0.006 µg/mL | EC50 [13]: 0.014 µg/mL

B13: MPXV-9 (antibody, V domains shown)
VH: QVQLVQSGAEVKKPGASVKVSCKASGYNLTTYDIVWVRQAAGQGLEWMGWMNPKSGNTAYAERFQGRVTMTRNTSISTAYMELSSLRSEDTAVYYCARSLDSLRFLEWFHQNYYYFMDVWGKGTTVT
VL: EIVLTQSPATLSLSPGERATLSCRASQTIGGYLAWYQQIPGQAPRLLIYDASNRATGIPARFSGSGSGTDFTLTISSLEPEDFAVYYCQLRSTFGGGTKVDIK
EC50 [16]: 0.876 µg/mL | EC50 [17]: 0.022 µg/mL | EC50 [18]: 0.107 µg/mL

B14: VACV-22 (antibody, V domains shown)
VH: QVQLVESGGGVVQPGRSLRLSCAASGFTFSNSGMHWVRQAPGKGLEWVAVIWFDGTNKYYADSVKGRFTISRDNSKNTLYLQMNSLRAEDTAVYYCARVPCGGDCYSGYLQHWGQGTLVTVSS
VL: AIVMTQSPATLSVSPGERATLSCRASQSVSSTLAWYQQKPGQAPRLLIYGASTKATGIPARFSGSGSGTEFTLTISSLQSEDFAVYYCQHYNNWPPLLTFGGGTKVDIK
EC50 [24]: > 0.009 µg/mL | EC50 [14]: > 0.006 µg/mL | PRNT Emax, MPXV EV+C' [15]: 72% | PRNT IC50, MPXV EV+C' [15]: 50 µg/mL | EC50 [25]: 0.02 µg/mL
